In publication doi:10.1101/2023.08.24.554616:

Target: MDM2 SWIB domain, Danio rerio (Danio rerio)
Assay: fluorescence polarisation

Work on “p53TAD_(D.rerio)^10-75 (domain or fragment)” yielded a Kd of 49 nM and a fold higher affinity than p53TAD (D.rerio)^15-27 of over 70 fold.

“p53TAD_(D.rerio)^12-55 (domain or fragment)” was tested, and the Kd was 180 nM.

For “alternative p53TAD_(D.rerio)^17-32 (P79734), ending with IIQPP (peptide)”, the Kd was 580 nM.

Substance “p53TAD_(D.rerio)^17-32 triple Ala mutant (AAAQP) (peptide)” has a fold reduced affinity against p53TAD (D.rerio)^17-32 of 7.7 fold.
